Measurements from article doi:10.1101/2022.03.30.486377 (bioRxiv, 2022).

Tests used:
Assay in all cases: ELISA
[1] = molecular target: SARS-CoV-2 S2 in postfusion conformation (SARS-CoV-2 (D614G ectodomain; D614G …, UniProt P0DTC2, strain)
[2] = molecular target: SARS-CoV-2 S2 PentaPro in prefusion conformation (SARS-CoV-2, Wuhan-Hu-1 sequence, UniProt P0DTC2, stabilised)
[3] = molecular target: SARS-CoV-2 S PentaPro (F817), prefusion S trimer (SARS-CoV-2, Wuhan-Hu-1 sequence, UniProt P0DTC2, stabilised)

Measured: binding result

B1: C77G12 mAb (antibody, V domains shown)
VH: EVQLVESGGGVVQPGRSLRISCAVSGFTFGSYAMHWVRQAPGKGLEWVGVMSSDGHNEYYADSVKGRFTISRDNSRNKLYLEMNNLRVDDTAVFYCARGSDYVDDSPPLHYWGQGTLVTVSS
VL: DIQLTQSPSSLSASIGDRVTITCRASQDIANKLAWFQQAPGKAPKSLIYAASRLQSGVPSQFSGSGSGTDFTLTIESLQAGDFATYFCQQYDSFPFTFGPGTKVDVK
binds: [1] | [2] | [3]

B2: VP12E7 mAb (antibody, V domains shown)
VH: QVQLVQSGGGVVQPGESLRLSCSGSGFTFNNYIMHWVRQAPGQGLDYVSGIGSDGRNTNYGDSVKGRFTISRDNSKDTLYLQMTSLRAEDTAFYYCVKGLDVLRFLDLSTPSGERLDAFDIWGQGTMVTVSS
VL: DIVMTQSPSFLSASVGDRVTITCRASQGISNYLAWYQQKPGKAPHLLIYAASTLQSGVPSRFSGSGSGTEFTLTISSLQPEDFATYYCQQLNSYPLFTFGPGTKVDIE
binds: [1] | [2] | [3]

B3: C13C9 mAb (antibody, V domains shown)
VH: EVQLVQSGPEVKKPGTSARVSCKASGFTSKNTALQWVRQARGQPLEWMGWIDISNYITNYAQKFRGRLTITWDLSASMAYMELSSLRSEDTAVYYCAAVGKDDDVLTGGNKYFDHWGQGTLVTVSS
VL: SYELTQPPSVSVSPGQTARITCSGDALPKKYAYWYQQKSGQAPVLVIHEDDKRPSGIPGRFSASSSGTTATLTISGAQVEDEADYYCYSTDTNDNHAFGSGTKLTVL
binds: [1] | [2] | [3]

B4: VN01H1 mAb (antibody, V domains shown)
VH: EVQLVESGGGLVLPGGSLRLSCSASGFTFSDFSMHWVRQSPGKGLEYVSAITSSGSSTYYPDSVKGRFTISRDNSKNTLYLQMGSLRVEDTAVYWCVKNSDVFRFPHLYFDVWGRGTLVTVSS
VL: not shown
binds: [1] | [2] | [3]

B5: C13B8 mAb (antibody, V domains shown)
VH: QVQLQESGPGLVQPSQTLTLTCTVSGDSISNEDYHWTWIRQHPGKGLEWMGYLQYSGNTNYNPSLKSRMTISVDTSKNQFSLRLNSVTAADTAVYFCATSIVLTGMSNKIQPFDYWGQGTLVTVSS
VL: SYELTQPPSVSVSPGQMARITCSGEALPKKYAYWYQQKGGQFPVLVIYKDTERPSGIPERFSGSSSGTIVTLTISGVQPEDEADYYCLSADTSGTWVFGGGTKLTVL
binds: [1] | [2] | [3]
